Data from the Human Domainome abundance scans (Beltran et al. 2025).
± gives the uncertainty stated by the source.

B1: Cold shock protein CspB, residues 1 to 66; numbered along this chain, P41016 (parent)
chain: MQRGKVKWFNNEKGYGFIEVEGGSDVFVHFTAIQGEGFKTLEEGQEVSFEIVQGNRGPQAANVVKL

Variants of: B1
Assay: abundance fitness (aPCA) (normalised: wild type 0, dead -1); higher = more abundant; growth selection in yeast, the domain comes from the species named
Settings: Bacillus caldolyticus

Variant | abundance fitness
R3V | -0.013 ± 0.034
R3W | -0.117 ± 0.041
R3Y | 0.027 ± 0.065
G4A | -0.117 ± 0.025
G4C | -0.905 ± 0.042
G4D | -0.891 ± 0.038
G4E | -0.717 ± 0.048
G4F | -0.866 ± 0.035
G4H | -0.409 ± 0.029
G4K | -0.654 ± 0.041
G4M | -0.997 ± 0.066
G4N | -0.368 ± 0.029
G4P | -0.571 ± 0.035
G4Q | -0.428 ± 0.035
G4R | -0.537 ± 0.024
G4S | -0.109 ± 0.021
G4T | -0.77 ± 0.039
G4W | -1.05 ± 0.067
G4Y | -0.81 ± 0.041
K5A | -0.042 ± 0.042
K5C | -0.003 ± 0.049
K5D | -0.156 ± 0.082
K5E | -0.065 ± 0.056
K5F | -0.008 ± 0.061

Variant | abundance fitness
K5G | -0.222 ± 0.033
K5H | 0.005 ± 0.065
K5I | -0.037 ± 0.05
K5M | -0.069 ± 0.039
K5N | -0.029 ± 0.063
K5P | -0.22 ± 0.041
K5Q | -0.056 ± 0.045
K5R | -0.035 ± 0.026
K5S | -0.027 ± 0.034
K5V | -0.03 ± 0.039
K5W | -0.052 ± 0.03
K5Y | -0.072 ± 0.061
V6A | -0.088 ± 0.035
V6C | -0.058 ± 0.059
V6D | -1.09 ± 0.11
V6E | -1.02 ± 0.091
V6F | -0.622 ± 0.051
V6G | -0.452 ± 0.026
V6H | -0.863 ± 0.084
V6I | -0.017 ± 0.04
V6L | -0.158 ± 0.03
V6M | -0.104 ± 0.059
V6P | -0.801 ± 0.081
V6Q | -0.824 ± 0.066

Variant | abundance fitness
V6R | -0.971 ± 0.052
V6S | -0.324 ± 0.036
V6T | -0.002 ± 0.048
V6W | -0.756 ± 0.058
K7A | -0.002 ± 0.03
K7C | -0.003 ± 0.035
K7D | -0.199 ± 0.048
K7E | -0.225 ± 0.055
K7F | -0.3 ± 0.038
K7G | -0.106 ± 0.031
K7H | -0.088 ± 0.046
K7I | 0.02 ± 0.052
K7L | -0.058 ± 0.027
K7M | -0.072 ± 0.049
K7N | -0.016 ± 0.04
K7P | -0.817 ± 0.057
K7Q | -0.07 ± 0.051
K7R | -0.045 ± 0.034
K7S | -0.033 ± 0.026
K7T | -0.052 ± 0.032
K7V | -0.034 ± 0.028
K7W | -0.49 ± 0.057
K7Y | -0.316 ± 0.042
W8C | -0.046 ± 0.12

Variant | abundance fitness
W8G | -0.304 ± 0.2
W8R | -0.075 ± 0.42
F9A | -0.303 ± 0.037
F9C | -0.35 ± 0.038
F9D | -0.881 ± 0.11
F9E | -0.827 ± 0.088
F9G | -0.939 ± 0.09
F9H | -0.567 ± 0.057
F9I | -0.272 ± 0.045
F9K | -0.389 ± 0.047
F9M | -0.233 ± 0.045
F9N | -0.854 ± 0.11
F9P | -0.956 ± 0.069
F9Q | -0.854 ± 0.073
F9R | -0.583 ± 0.03
F9S | -0.408 ± 0.028
F9T | -0.306 ± 0.038
F9V | -0.239 ± 0.039
F9W | -0.092 ± 0.043
F9Y | -0.119 ± 0.061
N10A | -0.047 ± 0.034
N10C | -0.027 ± 0.048
N10D | -0.086 ± 0.061
N10E | -0.079 ± 0.051

Variant | abundance fitness
N10F | -0.132 ± 0.061
N10I | -0.023 ± 0.074
N10K | -0.038 ± 0.056
N10L | -0.069 ± 0.032
N10M | -0.083 ± 0.053
N10P | -0.792 ± 0.053
N10Q | -0.025 ± 0.049
N10R | -0.031 ± 0.028
N10S | 0.01 ± 0.034
N10T | -0.118 ± 0.051
N10W | -0.122 ± 0.037
N10Y | -0.214 ± 0.062
N11A | -0.052 ± 0.046
N11C | -0.051 ± 0.054
N11D | 0.028 ± 0.06
N11E | -0.027 ± 0.068
N11F | -0.052 ± 0.07
N11G | -0.071 ± 0.038
N11H | -0.027 ± 0.07
N11I | -0.065 ± 0.083
N11K | -0.047 ± 0.078
N11L | -0.003 ± 0.036
N11M | -0.042 ± 0.048
N11Q | -0.138 ± 0.063

Variant | abundance fitness
N11R | -0.017 ± 0.038
N11S | -0.033 ± 0.039
N11T | -0.025 ± 0.044
N11Y | -0.111 ± 0.074
E12A | 0.036 ± 0.033
E12C | -0.004 ± 0.049
E12D | -0.021 ± 0.049
E12F | 0.006 ± 0.034
E12G | -0.02 ± 0.041
E12H | 0.009 ± 0.054
E12I | -0.198 ± 0.04
E12K | 0.077 ± 0.074
E12L | 0.017 ± 0.029
E12M | 0.004 ± 0.043
E12N | 0.042 ± 0.066
E12P | 0.036 ± 0.032
E12Q | 0.017 ± 0.057
E12R | 0.049 ± 0.034
E12S | 0.022 ± 0.032
E12T | 0.034 ± 0.037
E12V | -0.064 ± 0.032
E12W | 0.005 ± 0.04
E12Y | 0.016 ± 0.045
K13A | -0.078 ± 0.058

Variant | abundance fitness
K13C | -0.071 ± 0.062
K13D | -0.09 ± 0.048
K13E | -0.133 ± 0.05
K13F | -0.1 ± 0.057
K13G | -0.131 ± 0.043
K13H | 0 ± 0.084
K13I | -0.065 ± 0.056
K13L | 0.014 ± 0.027
K13M | -0.019 ± 0.042
K13N | -0.106 ± 0.068
K13P | -0.154 ± 0.036
K13Q | -0.072 ± 0.052
K13R | -0.007 ± 0.037
K13S | -0.044 ± 0.038
K13V | -0.044 ± 0.045
K13W | -0.089 ± 0.043
K13Y | -0.03 ± 0.083
G14A | -0.175 ± 0.035
G14C | -0.13 ± 0.081
G14D | -0.468 ± 0.059
G14E | -0.359 ± 0.032
G14F | -0.484 ± 0.06
G14H | -0.047 ± 0.072
